Experimental data taken from patent US20090227507A1, “Angiotensin (1-7) Dosage Forms and Uses Thereof” (UNIVERSITY OF SOUTHERN CALIFORNIA, priority 2008, published 2009).

Test: Hematology profile (CBC with differential, platelet count) in healthy men;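 for Platelet Count, Median Change from Baseline: Thousands of platelets per mm³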;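 for Platelet Count, Median: Thousands of platelets per mm³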
Format: in vivo, human
Description: Pharmacological Effect: The following evaluations (under efficacy and safety in the protocol) were performed: • Effects on the number of mature blood cells: • 1. CBC (with differential), platelet count, reticulocyte count. • Effects on early hematopoietic progenitor cells and mature lymphocyte subsets in the periphery: • 1. Flow cytometry to evaluate frequency of peripheral blood progenitor cells (eg, CD34^+) and lymphocyte subsets (eg, CD3, CD4, CD8) in peripheral blood. • 2. Collection of blood for later possible culture for progenitor cells (eg, colony forming units-granulocyte/macrophage [CFU-GM]) to evaluate potential effects on CD34^+ hematopoietic progenitor cells in peripheral blood. • 3.
The effect of USB003 on the number of mature blood cells was assessed by the complete blood count with differential, platelet and reticulocyte counts. The effects on early hematopoietic progenitor cells and mature lymphocyte subsets in the periphery were assessed by flow cytometry. In addition, blood was collected and processed to enable culture of progenitors at a later time.
Red blood cell (RBC) count, RBC indices, white blood cell count (WBC) with differential, reticulocyte count, platelet count, hemoglobin (Hb), hematocrit (Hct), plasma hemoglobin, peripheral flow cytometry, including CD34^+, flow cytometry for enumeration of CD3, CD4, and CD8 lymphocytes, and culture for progenitor cells in peripheral blood including colony-forming units-granulocyte/macrophage (CFU-GM).

[1] = 200 μg/kg, N = 9, baseline to Day 8
[2] = 200 μg/kg, N = 9, baseline to Day 20
[3] = 300 μg/kg, N = 8, baseline to Day 8

For Asp-Arg-Val-Tyr-Ile-His-Pro [USB003], the absolute neutrophil concentrations (200 ug/kg and 300 ug/kg, at 20 days) was “apparent dose-related increase”, the “shifts in eosinophils from high at baseline to normal” value (200 μg/kg dose group, Day 8 and Day 20, compared with placebo) was “notable number of subjects” and the “Absolute Eosinophils shift H-N, number of subjects” value (“Absolute Eosinophils shift H-N” below) [1] was 1. The “Absolute Eosinophils shift L-N, number of subjects” value (from here on “Absolute Eosinophils shift L-N”) [1] was “— (“—” = 0)”, the “Absolute Eosinophils shift N-H, number of subjects” value (shortened to “Absolute Eosinophils shift N-H”) [1] was “— (“—” = 0)” and the “Absolute Eosinophils shift N-L, number of subjects” value (“Absolute Eosinophils shift N-L” below) [1] was “— (“—” = 0)”. For the same substance, the “Absolute Reticulocytes shift H-N, number of subjects” value (from here on “Absolute Reticulocytes shift H-N”) [1] was “— (“—” = 0)”, the “Absolute Reticulocytes shift L-N, number of subjects” value (“Absolute Reticulocytes shift L-N” for short) [1] was “— (“—” = 0)” and the “Absolute Reticulocytes shift N-H, number of subjects” value (“Absolute Reticulocytes shift N-H” for short) [1] was “— (“—” = 0)”. For the same substance, the “Absolute Reticulocytes shift N-L, number of subjects” value (“Absolute Reticulocytes shift N-L” for short) [1] was “— (“—” = 0)”, the “Eosinophils shift H-N, number of subjects” value [1] was 3 and the “Eosinophils shift L-N, number of subjects” value [1] was “— (“—” = 0)”. The “Eosinophils shift N-H, number of subjects” value [1] was “— (“—” = 0)”, the “Eosinophils shift N-L, number of subjects” value [1] was “— (“—” = 0)” and the “Hematocrit shift H-N, number of subjects” value [1] was “— (“—” = 0)”. For the same substance, the “Hematocrit shift L-N, number of subjects” value [1] was “— (“—” = 0)”, the “Hematocrit shift N-H, number of subjects” value [1] was “— (“—” = 0)” and the “Hematocrit shift N-L, number of subjects” value [1] was “— (“—” = 0)”. The “Hemoglobin shift H-N, number of subjects” value [1] was “— (“—” = 0)”, the “Hemoglobin shift L-N, number of subjects” value [1] was “— (“—” = 0)” and the “Hemoglobin shift N-H, number of subjects” value [1] was “— (“—” = 0)”. The “Hemoglobin shift N-L, number of subjects” value [1] was “— (“—” = 0)”, the “Lymphocytes shift H-N, number of subjects” value [1] was 1 and the “Lymphocytes shift L-N, number of subjects” value [1] was 1. The “Lymphocytes shift N-H, number of subjects” value [1] was “— (“—” = 0)”, the “Lymphocytes shift N-L, number of subjects” value [1] was “— (“—” = 0)” and the “Plasma Hemoglobin shift H-N, number of subjects” value [1] was “— (“—” = 0)”. For the same substance, the “Plasma Hemoglobin shift L-N, number of subjects” value [1] was “— (“—” = 0)”, the “Plasma Hemoglobin shift N-H, number of subjects” value [1] was “— (“—” = 0)” and the “Plasma Hemoglobin shift N-L, number of subjects” value [1] was “— (“—” = 0)”. For the same substance, the “Platelet Count shift H-N, number of subjects” value [1] was “— (“—” = 0)”, the “Platelet Count shift L-N, number of subjects” value [1] was “— (“—” = 0)” and the “Platelet Count shift N-H, number of subjects” value [1] was 1. The “Platelet Count shift N-L, number of subjects” value [1] was “— (“—” = 0)”, the “RBC shift H-N, number of subjects” value [1] was “— (“—” = 0)” and the “RBC shift L-N, number of subjects” value [1] was “— (“—” = 0)”. The “RBC shift N-H, number of subjects” value [1] was “— (“—” = 0)”, the “RBC shift N-L, number of subjects” value [1] was “— (“—” = 0)” and the “Segmented Neutrophils shift H-N, number of subjects” value [1] was 1. For the same substance, the “Segmented Neutrophils shift L-N, number of subjects” value [1] was “— (“—” = 0)”, the “Segmented Neutrophils shift N-H, number of subjects” value [1] was “— (“—” = 0)” and the “Segmented Neutrophils shift N-L, number of subjects” value [1] was “— (“—” = 0)”. For the same substance, the “Absolute Eosinophils shift H-N” value [2] was “— (“—” = 0)”, the “Absolute Eosinophils shift L-N” value [2] was “— (“—” = 0)” and the “Absolute Eosinophils shift N-H” value [2] was 1. For the same substance, the “Absolute Eosinophils shift N-L” value [2] was “— (“—” = 0)”, the “Absolute Neutrophils shift H-N, number of subjects” value [2] was “— (“—” = 0)” and the “Absolute Neutrophils shift L-N, number of subjects” value [2] was “— (“—” = 0)”. The “Absolute Neutrophils shift N-H, number of subjects” value [2] was “— (“—” = 0)”, the “Absolute Neutrophils shift N-L, number of subjects” value [2] was “— (“—” = 0)” and the “Absolute Reticulocytes shift H-N” value [2] was “— (“—” = 0)”. For the same substance, the “Absolute Reticulocytes shift L-N” value [2] was “— (“—” = 0)”, the “Absolute Reticulocytes shift N-H” value [2] was 2 and the “Absolute Reticulocytes shift N-L” value [2] was “— (“—” = 0)”. For the same substance, the “Eosinophils shift H-N, number of subjects” value [2] was 2, the “Eosinophils shift L-N, number of subjects” value [2] was “— (“—” = 0)” and the “Eosinophils shift N-H, number of subjects” value [2] was “— (“—” = 0)”. The “Eosinophils shift N-L, number of subjects” value [2] was “— (“—” = 0)”, the “Hematocrit shift H-N, number of subjects” value [2] was “— (“—” = 0)” and the “Hematocrit shift L-N, number of subjects” value [2] was “— (“—” = 0)”. The “Hematocrit shift N-H, number of subjects” value [2] was “— (“—” = 0)”, the “Hematocrit shift N-L, number of subjects” value [2] was “— (“—” = 0)” and the “Hemoglobin shift H-N, number of subjects” value [2] was “— (“—” = 0)”. For the same substance, the “Hemoglobin shift L-N, number of subjects” value [2] was 1, the “Hemoglobin shift N-H, number of subjects” value [2] was “— (“—” = 0)” and the “Hemoglobin shift N-L, number of subjects” value [2] was 1. The “Lymphocytes shift H-N, number of subjects” value [2] was “— (“—” = 0)”, the “Lymphocytes shift L-N, number of subjects” value [2] was 1 and the “Lymphocytes shift N-H, number of subjects” value [2] was “— (“—” = 0)”. The “Lymphocytes shift N-L, number of subjects” value [2] was “— (“—” = 0)”, the “Monocytes shift H-N, number of subjects” value [2] was “— (“—” = 0)” and the “Monocytes shift L-N, number of subjects” value [2] was “— (“—” = 0)”. For the same substance, the “Monocytes shift N-H, number of subjects” value [2] was “— (“—” = 0)”, the “Monocytes shift N-L, number of subjects” value [2] was “— (“—” = 0)” and the “Plasma Hemoglobin shift H-N, number of subjects” value [2] was “— (“—” = 0)”. The “Plasma Hemoglobin shift L-N, number of subjects” value [2] was “— (“—” = 0)”, the “Plasma Hemoglobin shift N-H, number of subjects” value [2] was 2 and the “Plasma Hemoglobin shift N-L, number of subjects” value [2] was “— (“—” = 0)”. For the same substance, the “Platelet Count shift H-N, number of subjects” value [2] was “— (“—” = 0)”, the “Platelet Count shift L-N, number of subjects” value [2] was “— (“—” = 0)” and the “Platelet Count shift N-H, number of subjects” value [2] was 1. For the same substance, the “Platelet Count shift N-L, number of subjects” value [2] was “— (“—” = 0)”, the “RBC shift H-N, number of subjects” value [2] was “— (“—” = 0)” and the “RBC shift L-N, number of subjects” value [2] was “— (“—” = 0)”. The “RBC shift N-H, number of subjects” value [2] was “— (“—” = 0)”, the “RBC shift N-L, number of subjects” value [2] was “— (“—” = 0)” and the “RDW shift H-N, number of subjects” value [2] was “— (“—” = 0)”. For the same substance, the “RDW shift L-N, number of subjects” value [2] was “— (“—” = 0)”, the “RDW shift N-H, number of subjects” value [2] was 1 and the “RDW shift N-L, number of subjects” value [2] was “— (“—” = 0)”. For the same substance, the “Segmented Neutrophils shift H-N, number of subjects” value [2] was 1, the “Segmented Neutrophils shift L-N, number of subjects” value [2] was “— (“—” = 0)” and the “Segmented Neutrophils shift N-H, number of subjects” value [2] was “— (“—” = 0)”. For the same substance, the “Segmented Neutrophils shift N-L, number of subjects” value [2] was “— (“—” = 0)”, the “WBC shift H-N, number of subjects” value [2] was “— (“—” = 0)” and the “WBC shift L-N, number of subjects” value [2] was “— (“—” = 0)”. For the same substance, the “WBC shift N-H, number of subjects” value [2] was “— (“—” = 0)”, the “WBC shift N-L, number of subjects” value [2] was “— (“—” = 0)” and the “Absolute Neutrophils, Median” value (200 μg/kg, Baseline) was 3.00 thousands/mm^3. For the same substance, the “Hematocrit, Median” value (200 μg/kg, Baseline) was 46.50%, the “Hemoglobin, Median” value (200 μg/kg, Baseline) was 15.30 g/dL and the “Lymphocytes, Median” value (200 μg/kg, Baseline) was 35.80%. For the same substance, the “Platelet Count, Median” value (200 μg/kg, Baseline) was 263.0 thousands/mm^3, the “WBC, Median” value (200 μg/kg, Baseline) was 5.60 thousands/mm^3 and the “Absolute Neutrophils, Median” value (200 μg/kg, Day 8) was 3.60 thousands/mm^3. For the same substance, the “Absolute Neutrophils, Median Change from Baseline” value (200 μg/kg, Day 8) was 0.45 thousands/mm^3, the “Hematocrit, Median” value (200 μg/kg, Day 8) was 43.65% and the “Hematocrit, Median Change from Baseline” value (200 μg/kg, Day 8) was −1.65%. The “Hemoglobin, Median” value (200 μg/kg, Day 8) was 15.10 g/dL, the “Hemoglobin, Median Change from Baseline” value (200 μg/kg, Day 8) was -0.20 g/dL and the “Lymphocytes, Median” value (200 μg/kg, Day 8) was 32.40%. For the same substance, the “Lymphocytes, Median Change from Baseline” value (200 μg/kg, Day 8) was −2.25%, the “Platelet Count, Median” value (200 μg/kg, Day 8) was 242.0 thousands/mm^3 and the “Platelet Count, Median Change from Baseline” value (200 μg/kg, Day 8) was 1.0 thousands/mm^3. The “WBC, Median” value (200 μg/kg, Day 8) was 6.65 thousands/mm^3, the “WBC, Median Change from Baseline” value (200 μg/kg, Day 8) was 0.35 thousands/mm^3 and the “Absolute Neutrophils, Median” value (200 μg/kg, Day 20) was 3.80 thousands/mm^3. The “Absolute Neutrophils, Median Change from Baseline” value (200 μg/kg, Day 20) was 0.20 thousands/mm^3, the “Hematocrit, Median” value (200 μg/kg, Day 20) was 43.80% and the “Hematocrit, Median Change from Baseline” value (200 μg/kg, Day 20) was −1.50%. For the same substance, the “Hemoglobin, Median” value (200 μg/kg, Day 20) was 14.50 g/dL, the “Hemoglobin, Median Change from Baseline” value (200 μg/kg, Day 20) was -0.70 g/dL and the “Lymphocytes, Median” value (200 μg/kg, Day 20) was 31.50%. The “Lymphocytes, Median Change from Baseline” value (200 μg/kg, Day 20) was −1.80%, the “Platelet Count, Median” value (200 μg/kg, Day 20) was 250.0 thousands/mm^3 and the “Platelet Count, Median Change from Baseline” value (200 μg/kg, Day 20) was −5 thousands/mm^3. For the same substance, the “WBC, Median” value (200 μg/kg, Day 20) was 6.20 thousands/mm^3, the “WBC, Median Change from Baseline” value (200 μg/kg, Day 20) was 0.40 thousands/mm^3 and the WBC concentration (300 ug/kg group, at 20 days) was “relative increase”. The “Absolute Eosinophils shift H-N” value [3] was “— (“—” = 0)”, the “Absolute Eosinophils shift L-N” value [3] was “— (“—” = 0)” and the “Absolute Eosinophils shift N-H” value [3] was “— (“—” = 0)”. For the same substance, the “Absolute Eosinophils shift N-L” value [3] was “— (“—” = 0)”, the “Absolute Reticulocytes shift H-N” value [3] was “— (“—” = 0)” and the “Absolute Reticulocytes shift L-N” value [3] was “— (“—” = 0)”. For the same substance, the “Absolute Reticulocytes shift N-H” value [3] was 1, the “Absolute Reticulocytes shift N-L” value [3] was “— (“—” = 0)” and the “Eosinophils shift H-N, number of subjects” value [3] was 1.
